{"source": "the DeepSol protein solubility set"}
{"assay": "soluble on expression in E. coli; label from the status in PepcDB or PDB records"}
{"sequence": "MVTETLSRKADYNANKLRKRLRRLVGTAIADFNMIEKGDRVMVCLSGGKDSYALLDILRNLQAHAPLDFELIAVNLDQKQPGFPEHVLPGYLSEINMPFRIVEQDTYSVVKRVIAEGKTTCSLCSRLRRGVLYRVATELGATKIALGHHRDDILETFFLNMFYGGKLKAMPPKLVSDDGCHVVIRPLAYCKEKDLAAYAWHAQFPIIPCNLCGSQPNLQRQVIKEMMQQWDKKYPGRLETMFTALQNIQLSHLADTSRYDFVGLKPHGIAIEEGDKAFDEEPLSVIPVDMDHDDDSTFEPENEHDGGAVQGGVI", "soluble on expression in E. coli": "not soluble"}
{"sequence": "MARPQSKKKQTQIVRRSRPRGRLVPPGRLIAGRDFPEFLQQAVLLSGSLRQAARKLRVSYSTLRGWLGRRCEEPPEAERDLLAEHAAAIRAELDAASEHLATVRGQLDVLEHGE", "soluble on expression in E. coli": "not soluble"}
{"sequence": "MAHHHHHHMVTAVASVVFARFLRQRYPTVQRVSQYENLSTSPDAPCFVANRILTMTSSQAGTHADGPHHFCRSLSHRNYDDAHYSGDAVVLDIATELREHHQSLDPDASLAITVEVLEKARVKLPAAFRDGSRPVWRLLLVTRHSTATSPTSASATEALTGPPRVFFPLDVASPTQVATVGVKGGTAATLAEPSSNAYAFLYPEAVDYLHRVFPRLVLLGIDSPSVDLPQAMPPGQHSHGALLRCGIAILENLRYTRLSPLLESPAGNNQRGWISGSMLTVFNATQNYDDARGCSVIFFPEEAL", "soluble on expression in E. coli": "soluble"}
{"sequence": "MPAIVCQSALEAVSLIRSGETLWTHSMGATPKVLLDALAKHALTLDNITLLQLHTEGAESLSHPSLLGHLRHRCFFGGVPTRPLLQSGDADYVPIFLSEVPKLFRSGEQKIDTAIIQVSPPDKHGMCSLGISVEATLAACQVAGKIIAHINPQMPRTHGDGFIHIDRFAAVYEQSASLPIHSFATGDAVSLAIGQHVAELVRDGDCLQMGIGAIPDAVLSCLTGHKDLGVHTELFSDGILQLVEKGVINNTKKRFYPGKLVTGFALGSQKLYDYVDDNPAVIFMDIEQVNDTSIIRKNPNVMAINSALQVDLTGQVCADSIGTKIYSGVGGQMDFIRGAGLSEGGRSVIALPSTAAGGRISRIASVLSPGAGVVTTRAHVHYIVTEYGAANLKGRSLRERAQALINIAHPDFREQLSRDAFEVWGLNLLEHHHHHH", "soluble on expression in E. coli": "soluble"}
{"sequence": "MLRKISLLLSICFLLHQNIAYGEDNQQSIYEKRMALYKETEQSSGIPWYYLAAMDQYERNIRSVRKDIPKKPDAIISLYFKPEIWAGPVNGNDTLPHTIALFGGLGLDGDKDGFANANNDRDLLHTAATILKKQGTSEERIKIMLWEYYRRAKTVDLITEYAQIYKHYGRINLEGNAFPLPIRSDHSYRSTFGAGRSFGGRRVHEGTDIFAGYGVPVRSTCYGIIETKGWNRLGGWRIGIRDLHNNYHYYAHLGGFSKEIQLGQIVEPGKVIGFVGSTGYGPPGTAGKFPPHLHFGMYKDNGYTEWAFDPYMHLSLWERKERANTKR", "soluble on expression in E. coli": "not soluble"}
{"sequence": "MKVLFAKTFVKDLKHVPGHIRKRIKLIIEECQNSNSLNDLKLDIKKIKGYHNYYRIRVGNYSIGIEVNGDTIIFRRVLHRKSIYDYFP", "soluble on expression in E. coli": "soluble"}
{"sequence": "MEIKKGLEDVYVKETEITYIDGELGRLYYRGYSIYDLAEFSNFEEVSYLILYGKLPNREELNWFQEKLREERYLPDFIIKFLREVRKDAQPMDILRTAVSLLGIEDSKNDERTDIKGIKLISKFPTIVANYARLRKGLDIIEPDPKLSHSENFLYMLYGDRPNEIKSKAMDVTLILHIDHEMNASTFASLVVASTFSDLYSSIVAGISALKGPLHGGANYEALKMFKEIGSPEKVNDYILNRLSNKQRIMGFGHRVYKTYDPRARILKQYAKLLAEKEGGEIYTLYQIAEKVEEIGIKYLGPKGIYPNVDFFSSIVFYSLGFEPDFFPAVFASARVVGWVAHIMEYIKDNKIIRPKAYYKGEIGKKYIPIDSR", "soluble on expression in E. coli": "soluble"}
{"sequence": "MGSDKIHHHHHHMVAITSCSDDSDGIPGWPWNDNSTEGPENPDVTEIKPRYVWIDAAANFPDYANNKENISTDMVKVKNAGFTDIIVDVRPTTGDVLFNTTAVDQVKRMDVWGSSGYVYYERTETWDYLQAFIDAARSQGLKVHASVNTFVGGYLCPYNLGSDGILFRDDSKKEWASVANLADGLTNTMDLLNDETDYGAKFLNPANDDVQNFVLQLLGDLAKYDLDGIILDRCRYDDYGLESDFSAVSKQKFEEYIGETVAHFPEDIMAPGTDEIPSDQPAYFKKWLEFRVKVIHDFIVKAREKVKSVNSEINFGVYVGAWYSSYYTSGVNWASPKYDTSAYYPKWATADYKNYGYADHLDYIFLGAYASVDKIYGSGEWTMEGFCKNGRELLKGDVPFSGGPDIGNGTGWTNGGQAAKIPDAIDACINNSDGFFAFDLCHIKMYDYWNAFKTGFDNYLESVQK", "soluble on expression in E. coli": "not soluble"}
{"sequence": "MLSLNLPVFDTKINVRNGKNVIFDVIRKRYVALTPEEWVRQHFVHFLIAHKGYPNALLANEVMVKLNGTTKRCDTVLYRRDLSARMIVEYKAPHIEITQAVFDQITRYNMVLKVDYLIVSNGMQHYCCRMDYAHQSYTFLQDIPDYNAL", "soluble on expression in E. coli": "not soluble"}
{"sequence": "MKFILRLGLALLTGFVSVSTASAQAYGTADTNAPELRVPKSVQPAFDYWMRDTWATLGPDGYYYITGTTSTPDRHFPGQRHCWDWNDGLYLWRSKDLKIWEAMGRIWSMEKDGTWQKDPKVYKEGEKYAKKSINNDPMDNRFHAVWAPEMHYIKSAKNWFIVACMNQSAGGRGSFILRSTTGKPEGPYENIEGNEDKAIFPNIDGSLFEDTDGTVYFVGHNHYIARMKPDMSGLAEEIKTLKESKYSPEPYVEGAFIFKYDGKYHLVQAIWAHRTVKGDTYVEKEGLTNKKTRYSYDCIIATADNVYGPYGKRYNAITGGGHNNLFQDKDGNWWATMFFNPRGAQAAEYKVTCRPGLIPMLYENGKFKPNHNYQAK", "soluble on expression in E. coli": "not soluble"}
{"sequence": "MIEYSSFVLDNGLKVFVHEDRTTSMAALNILYDVGSKDEVVTKTGFAHLFEHLMFGGSKHIPSYDEALQKAGGENNAFTSPDITNYYITIPANNIETAFWLESDRMMALSFDPKVLEVQRSVVIEEFKQRYLNQPYGDVWLKLRPLAYKEHSYKWATIGKEISHIEEATMDDVRDFFYSYYLPNNAYMVVAGNVTLEQVKKLSEKWFAPIPSGTRRKRNIP", "soluble on expression in E. coli": "not soluble"}
{"sequence": "MGSDKIHHHHHHMQKYTSQKLDRLNWDDLRYFLEVARTQRASAAGKRLGVDHTTVARRVRELEAALGVILFDKSRADGFTLTSDGHRLLRHADAVETAVQSASEQFRGATQGLSGHVRIGSTEGFGCFFLSPQIARFTAAHRDVSIDILPVPHFVSLSKREADMAITLERPERGKYVFTRLCDYRLRLYGTRDYFLRHEPVRCIADLRHHAFIDYVADLAFSHELLYLNRTIPDVSSSLCSTSVIAQYFAALQGNALAILPCFMAAPNPMLVSILPDEVVVTRQFWLSSREDLRKLRRITVLWDYLRAATDANRPLLLGDSAELKYVQP", "soluble on expression in E. coli": "not soluble"}
{"sequence": "EVQLLEQSGAEVKKPGSSVQVSCKASGGTFSMYGFNWVRQAPGHGLEWMGGIIPIFGTSNYAQKFRGRVTFTADQATSTAYMELTNLRSDDTAVYYCARDFGPDWEDGDSYDGSGRGFFDFWGQGTLVTVSSASTKGPSVFPLAPSSKSTSGGTAALGCLVKDYFPEPVTVSWNSGALTSGVHTFPAVLQSSGLYSLSSVVTVPSSSLGTQTYICNVNHKPSNTKVDKKVEPKSCDKTS", "soluble on expression in E. coli": "soluble"}
{"sequence": "MSLKDQDIFELIEPSTDINDIIMPENTKELLENILKQQDKKVLERLHSWGIKSNKNIEAKIIFYGPAGTGKTMSALAMAKSMKKSVLSFDCSKILSKWVGESEQNVRKIFDTYKNIVQTCKQSPILLLNEADQFLSTRVDGSSGSDKMHNQMQNIFLEQIERFSGVIIATTNFLESLDSAFSRRFDYKIEFKKPDFKDRLKIWEKFLPKKALFEKDFDINILSNYELSGAQILMVVKNTALKVAVSKDGVFKIQDFIESIQKELNSSFDKSKIVGFEGHHHHHH", "soluble on expression in E. coli": "soluble"}
{"sequence": "MSLSYLPGTTFEGQWESLYFGNNIKERLYSYATISLKIARFKQTGDSNQEDITTLITNNKLLLVHGPPGTGKTTLCKALCQKLSVRREFSDGSDTIDTNYKGIIIELSCARIFSKWFGESSKNISIVFKDIEELLKVNEGRGIFICLLIDEVEAIASSRTNLSSRNESTDGIRVVNTLLTQLDRLKKYHNFLALATSNLLDSLDDAFVDRADGVFYVGNPTAEGILHILKVCIEEMITSGIILFHARSTGVKFFNKYQDILRKIAIKCSVCFFLLFYFYDSFSFFPSEGHHHHHH", "soluble on expression in E. coli": "soluble"}
